Reference: patent publication US20210054077A1 (AMUNIX PHARMACEUTICALS, published 2021)

Legend:
[1] = molecular target: human HER2 on cells (HER2 positive human carcinoma cells; CT26-huHER2 transfected cells; human cardiomyocytes) (human) (UniProt P04626); assay: cell-based or functional assay
[2] = molecular target: Biotinylated CD3CEµ antigen (Creative Biomart); assay: BLI (ForteBio BLItz); biotinylated CD3 antigen on streptavidin biosensor, scFv dilution series in solution
[3] = molecular target: human HER2 on cells (HER2 positive human carcinoma cells; CT26-huHER2 transfected cells; human cardiomyocytes) (human, UniProt P04626 23-1255); assay: cell-based or functional assay
Human CD3 ϵ -Fc = molecular target: T1, Human CD3 ϵ -Fc (human, UniProt P07766 23-126); assay: BLI (ForteBio Octet Red); target-Fc loaded on anti-human Fc biosensor, AC2275 as analyte 1010 nM to 16 nM
T1 construct: not shown: Fc part, captured on anti-human Fc biosensors

Cyno CD3 ϵ -Fc = molecular target: T2, Cyno CD3 ϵ -Fc (cynomolgus monkey, UniProt Q95LI5 22-117); assay: as above
T2 construct: also called cynomolgus monkey CD3; not shown: Fc part, captured on anti-human Fc biosensors
T2 sequence (looked up): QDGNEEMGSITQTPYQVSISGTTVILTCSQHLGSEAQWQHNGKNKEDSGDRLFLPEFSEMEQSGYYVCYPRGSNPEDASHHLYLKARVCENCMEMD

Biotinylated CD3CEµ antigen (Creative Biomart), sequence (P07766 23-126): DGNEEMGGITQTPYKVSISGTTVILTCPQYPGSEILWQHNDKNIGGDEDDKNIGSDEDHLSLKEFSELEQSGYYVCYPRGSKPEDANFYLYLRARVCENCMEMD
T1 sequence (P07766 23-126): as above

B1: pJB0244, masked anti-HER2 x anti-CD3 bispecific antigen binding polypeptide with two XTEN and two RSR2295 release segments (bispecific antibody, part only; not given: AE868 XTEN, scFv linker, not shown: small tags and cut ends)
chain, part: HHHHHHSPAGSPTSTEEGTSESATPESGPGTSTEPSEGSAPGTSESATPESGPGSEPATSGSETPGTSESATPESGPGSEPATSGSETPGTSESATPESGPGTSTEPSEGSAPGSPAGSPTSTEEGTSESATPESGPGSEPATSGSETPGTSESATPESGPGSPAGSPTSTEEGSPAGSPTSTEEGTSTEPSEGSAPGTSESATPESGPGTSESATPESGPGTSESATPESGPGSEPATSGSETPGSEPATSGSETPGSPAGSPTSTEEGTSTEPSEGSAPGTSTEPSEGSAPGGSAPEAGRSANHTPAGLTGPDIQMTQSPSSLSASVGDRVTITCKASQDVSIGVAWYQQKPGKAPKLLIYSASYRYTGVPSRFSGSGSGTDFTLTISSLQPEDFATYYCQQYYIYPYTFGQGTKVEIKGATPPETGAETESPGETTGGSAESEPPGEGEVQLVESGGGLVQPGGSLRLSCAASGFTFTDYTMDWVRQAPGKGLEWVADVNPNSGGSIYNQRFKGRFTLSVDRSKNTLYLQMNSLRAEDTAVYYCARNLGPSFYFDYWGQGTLVTVSSELVVTQEPSLTVSPGGTVTLTCRSSNGAVTSSNYANWVQQKPGQAPRGLIGGTNKRAPGTPARFSGSLLGGKAALTLSGVQPEDEAVYYCALWYPNLWVFGGGTKLTVLGATPPETGAETESPGETTGGSAESEPPGEGEVQLLESGGGIVQPGGSLKLSCAASGFTFNTYAMNWVRQAPGKGLEWVARIRSKYNNYATYYADSVKDRFTISRDDSKNTVYLQMNNLKTEDTAVYYCVRHENFGNSYVSWFAHWGQGTLVTVSSEAGRSANHTPAGLTGP
- EC50 (pM), cytotoxicity (Caspase-Glo 3/7), BT-474 cells with human PBMC [1]: 66000 pM
- EC50 (pM), cytotoxicity (Caspase-Glo 3/7), SK-Br3 cells with human PBMC [1]: 19500 pM
- EC50 (pM), cytotoxicity (Caspase-Glo 3/7), SKOV-3 cells with human PBMC [1]: 14100 pM

B2: CD3.9 scFv (scFv)
scFv: ELVVTQEPSLTVSPGGTVTLTCRSSTGAVTTSNYANWVQQKPGQAPRGLIGGTNKRAPGTPARFSGSLLGGKAALTLSGVQPEDEAEYYCALWYSNLWVFGGGTKLTVLGATPPETGAETESPGETTGGSAESEPPGEGEVQLLESGGGLVQPGGSLKLSCAASGFTFNTYAMNWVRQAPGKGLEWVARIRSKYNNYATYYADSVKDRFTISRDDSKNTAYLQMNNLKTEDTAVYYCVRHGNFGNSYVSWFAYWGQGTLVTVSS
- Kd [2]: 75 nM

B3: CD3.23 scFv (scFv)
scFv: ELVVTQEPSLTVSPGGTVTLTCRSSNGAVTSSNYANWVQQKPGQAPRGLIGGTNKRAPGTPARFSGSLLGGKAALTLSGVQPEDEAVYYCALWYPNLWVFGGGTKLTVLGATPPETGAETESPGETTGGSAESEPPGEGEVQLLESGGGIVQPGGSLKLSCAASGFTFNTYAMNWVRQAPGKGLEWVARIRSKYNNYATYYADSVKDRFTISRDDSKNTVYLQMNNLKTEDTAVYYCVRHENFGNSYVSWFAHWGQGTLVTVSS
- Kd [2]: 175 nM

B4: CD3.24 scFv (scFv)
scFv: ELVVTQEPSLTVSPGGTVTLTCRSSNGEVTTSNYANWVQQKPGQAPRGLIGGTIKRAPGTPARFSGSLLGGKAALTLSGVQPEDEAVYYCALWYPNLWVFGGGTKLTVLGATPPETGAETESPGETTGGSAESEPPGEGEVQLLESGGGIVQPGGSLKLSCAASGFTFNTYAMNWVRQAPGKGLEWVARIRSKYNNYATYYADSVKDRFTISRDDSKNTVYLQMNNLKTEDTAVYYCVRHENFGNSYVSWFAHWGQGTLVTVSS
- Kd [2]: 296 nM

B5: CD3.25 scFv (scFv)
scFv: ELVVTQEPSHTVSPGGTVTLTCRSSTGAVTSSNYANWVQQKPGQAPRGLIGGTIKRAPGTPARFSGSLLGGKAALTLSGVQPEDEAEYYCALWYPNLWVFGGGTKLTVLGATPPETGAETESPGETTGGSAESEPPGEGEVQLLESGGGIVQPGGSLKLSCAASGFTFNTYAMNWVRQAPGKGLEWVARIRSKYNNYATYYADSVKDRFTISRDDSKNTVYLQMNNLKTEDTAVYYCVRHENFGNSYVSWFAHWGQGTLVTVSS
- Kd [2]: 215 nM

B6: CD3.26 scFv (scFv)
scFv: ELVVTQEPSHTVSPGGTVTLTCRSSTGEVTTSNYANWVQQKPGQAPRGLIGGTIKRAPGTPARFSGSLLGGKAALTLSGVQPEDEAEYYCALWYPNLWVFGGGTKLTVLGATPPETGAETESPGETTGGSAESEPPGEGEVQLLESGGGIVQPGGSLKLSCAASGFTFNTYAMNWVRQAPGKGLEWVARIRSKYNNYATYYADSVKDRFTISRDDSKNTVYLQMNNLKTEDTAVYYCVRHENFGNSYVSWFAHWGQGTLVTVSS
- Kd [2]: 221 nM

B7: AC2275, bivalent anti-HER2, anti-CD3 XTENylated binder (HER2-XPAT of Example 24) (bispecific antibody)
chain: HHHHHHSPAGSPTSTEEGTSESATPESGPGTSTEPSEGSAPGTSESATPESGPGSEPATSGSETPGTSESATPESGPGSEPATSGSETPGTSESATPESGPGTSTEPSEGSAPGSPAGSPTSTEEGTSESATPESGPGSEPATSGSETPGTSESATPESGPGSPAGSPTSTEEGSPAGSPTSTEEGTSTEPSEGSAPGTSESATPESGPGTSESATPESGPGTSESATPESGPGSEPATSGSETPGSEPATSGSETPGSPAGSPTSTEEGTSTEPSEGSAPGTSTEPSEGSAPGGSAPEAGRSANHTPAGLTGPATSGSETPGTDIQMTQSPSSLSASVGDRVTITCKASQDVSIGVAWYQQKPGKAPKLLIYSASYRYTGVPSRFSGSGSGTDFTLTISSLQPEDFATYYCQQYYIYPYTFGQGTKVEIKGATPPETGAETESPGETTGGSAESEPPGEGEVQLVESGGGLVQPGGSLRLSCAASGFTFTDYTMDWVRQAPGKGLEWVADVNPNSGGSIYNQRFKGRFTLSVDRSKNTLYLQMNSLRAEDTAVYYCARNLGPSFYFDYWGQGTLVTVSSGGGGSELVVTQEPSLTVSPGGTVTLTCRSSNGAVTSSNYANWVQQKPGQAPRGLIGGTNKRAPGTPARFSGSLLGGKAALTLSGVQPEDEAVYYCALWYPNLWVFGGGTKLTVLGATPPETGAETESPGETTGGSAESEPPGEGEVQLLESGGGIVQPGGSLKLSCAASGFTFNTYAMNWVRQAPGKGLEWVARIRSKYNNYATYYADSVKDRFTISRDDSKNTVYLQMNNLKTEDTAVYYCVRHENFGNSYVSWFAHWGQGTLVTVSSGTAEAASASGEAGRSANHTPAGLTGPPGSPAGSPTSTEEGTSESATPESGPGTSTEPSEGSAPGSPAGSPTSTEEGTSTEPSEGSAPGTSTEPSEGSAPGTSESATPESGPGSEPATSGSETPGSEPATSGSETPGSPAGSPTSTEEGTSESATPESGPGTSTEPSEGSAPGTSTEPSEGSAPGSPAGSPTSTEEGTSTEPSEGSAPGTSTEPSEGSAPGTSESATPESGPGTSTEPSEGSAPGTSESATPESGPGSEPATSGSETPGTSTEPSEGSAPGTSTEPSEGSAPGTSESATPESGPGTSESATPESGPGSPAGSPTSTEEGTSESATPESGPGSEPATSGSETPGTSESATPESGPGTSTEPSEGSAPGTSTEPSEGSAPGTSTEPSEGSAPGTSTEPSEGSAPGTSTEPSEGSAPGTSTEPSEGSAPGSPAGSPTSTEEGTSTEPSEGSAPGTSESATPESGPGSEPATSGSETPGTSESATPESGPGSEPATSGSETPGTSESATPESGPGTSTEPSEGSAPGTSESATPESGPGSPAGSPTSTEEGSPAGSPTSTEEGSPAGSPTSTEEGTSESATPESGPGTSTEPSEGSAPGAAEPEA
notes: also called HER2-XPAT 2275
- EC50, % CD69+ T cells in human PBMC co-cultured with SK-OV-3 cells (flow cytometry) [3]: 3.63 nM
- IC50, T-cell directed cytotoxicity (CellTiter-Glo ATP assay), BT474 cells with human PBMC [3]: 1.36 nM
- IC50, T-cell directed cytotoxicity (CellTiter-Glo ATP assay), MCF7 cells with human PBMC [3]: > 26.7 nM
- IC50, T-cell directed cytotoxicity (CellTiter-Glo ATP assay), SKOV3 cells with human PBMC [3]: 15.3 nM
- Kd (Human CD3 ϵ -Fc): 111 nM
- Kd (Cyno CD3 ϵ -Fc): 170 nM
